{"source": "patent US11419945B2", "about": "“Antigen binding proteins” (Glaxo Group Limited, priority 2011, dated 2022)", "molecules": {"B1": {"name": "CA8 Chimera: chimeric anti-BCMA antibody: murine CA8 VH (SEQ ID NO:7) and VL (SEQ ID NO:9) on human γ1 and kappa constant regions (antibody, V domains shown)", "VH": "EVQLQQSGAVLARPGASVKMSCKGSGYTFTNYWMHWVKQRPGQGLEWIGATYRGHSDTYYNQKFKGKAKLTAVTSTSTAYMELSSLTNEDSAVYYCTRGAIYNGYDVLDNWGQGTLVTVSS", "VL": "DIQLTQTTSSLSASLGDRVTISCSASQDISNYLNWYQQKPDGTVELVIYYTSNLHSGVPSRFSGSGSGTDYSLTIGYLEPEDVATYYCQQYRKLPWTFGGGSKLEIKR", "modifications": "human IgG1 and kappa constant regions; mus musculus"}}, "key": {"Human in house BCMA": {"target": "T1, Human in house BCMA (Homo sapiens, UniProt Q02223)", "T1 construct": "CD33 signal peptide (N); TEV site (internal); Fc (C); made in house", "T1 sequence (Q02223 with tags, fused parts or gaps limits assumed)": "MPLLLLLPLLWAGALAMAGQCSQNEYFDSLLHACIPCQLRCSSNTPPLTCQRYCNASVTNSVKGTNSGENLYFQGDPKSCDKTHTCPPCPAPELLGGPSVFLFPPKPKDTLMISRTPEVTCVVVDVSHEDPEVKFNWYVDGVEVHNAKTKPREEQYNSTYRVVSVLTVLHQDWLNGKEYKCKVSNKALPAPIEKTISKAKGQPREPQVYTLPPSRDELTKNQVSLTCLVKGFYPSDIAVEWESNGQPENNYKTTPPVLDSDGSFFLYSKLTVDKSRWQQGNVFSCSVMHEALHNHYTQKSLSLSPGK", "assay": "ProteOn analysis of CA8 chimeric and humanised constructs, human in house BCMA", "format": "binding", "settings": "ProteOn, 25° C.; for ka: in M-1s-1 (unit assumed); for kd: in s-1 (unit assumed)", "summary_of_the_method": "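SPR at 25 °C in HBS-EP: CA8 antibodies captured on Protein A-coated chip, recombinant BCMA injected at 256, 64, 16, 4, 1 nM with buffer double-referencing; NaOH regeneration. Kinetics from 1:1 model fit; run 2 also used commercial human BCMA.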"}, "[1]": {"tested_on": "ARH77 BCMA transfected target cells (10B5)", "assay": "ADCC of chimeric and defucosylated chimeric CA8 with NK cells", "format": "cell-based", "settings": "human NK cells, E:T ratio 5:1, 2 hours", "protocol": "Human natural killer (NK) cells were incubated with europium labelled ARH77 BCMA transfected target cells (10B5) in the presence of varying concentrations of antibody at an E:T ratio of 5:1 for 2 hours. Europium release from the target cells was measured and specific lysis calculated."}, "Human commercial BCMA [2]": {"target": "T2, Human commercial BCMA (Homo sapiens, UniProt Q02223)", "T2 construct": "purchased US Biological B0410", "T2 sequence (Q02223 1-184)": "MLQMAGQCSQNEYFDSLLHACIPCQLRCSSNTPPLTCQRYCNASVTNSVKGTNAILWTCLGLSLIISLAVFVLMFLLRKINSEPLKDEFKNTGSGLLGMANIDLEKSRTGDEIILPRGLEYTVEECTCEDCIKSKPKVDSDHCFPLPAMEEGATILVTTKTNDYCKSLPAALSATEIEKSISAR", "assay": "BIAcore analysis of J6M0 and J9M0, human commercial BCMA", "format": "binding", "protocol": "(§1) Protein A was immobilised on a CMS chip (GE Healthcare, Cat No: BR-1005-30) by primary amine coupling and this surface was then used to capture the antibody molecules. Recombinant human BCMA (US Biological, B0410) was used as analyte at 256 nM, 64 nM, 16 nM, 4 nM and 1 nM. Regeneration of the capture surface was carried out using 50 mM NaOH. All binding curves were double referenced with a buffer injection (i.e. 0 nM) the data was fitted to the using the 1:1 model inherent to T100 evaluation software. The run was carried out at 25° C. and 37° C. for experiment 1 and only 37° C. for experiment 2 using HBS-EP as the running buffer."}, "Cyno in house BCMA [3]": {"tested_on": "Cyno in house BCMA", "sequence (as listed by the source)": "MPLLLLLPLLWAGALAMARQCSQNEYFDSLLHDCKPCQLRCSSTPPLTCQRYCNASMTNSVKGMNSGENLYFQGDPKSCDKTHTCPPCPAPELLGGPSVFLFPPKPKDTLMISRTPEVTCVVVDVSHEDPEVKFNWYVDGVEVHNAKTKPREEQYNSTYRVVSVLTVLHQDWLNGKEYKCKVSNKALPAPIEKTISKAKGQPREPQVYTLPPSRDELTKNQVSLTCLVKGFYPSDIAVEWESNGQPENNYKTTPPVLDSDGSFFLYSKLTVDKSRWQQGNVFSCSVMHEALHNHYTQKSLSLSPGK", "assay": "ProteOn analysis of CA8 chimeric and humanised constructs, cyno in house BCMA", "format": "binding", "settings": "25° C.; for ka: in M-1s-1 (unit assumed); for kd: in s-1 (unit assumed)"}, "[4]": {"tested_on": "human multiple myeloma cell lines NCI-H929, U266-B1, JJN3 and OPM2", "assay": "ADC activity of chimeric CA8 ADCs, 4 multiple myeloma cell lines (Cell titre Glo, 96 hours)", "format": "cell-based", "settings": "1 ug/ml to 5 ng/ml, all 4 cell lines", "protocol": "FIG. 11: Viability assay dose response curves—Figure showing dose response curves in a cell viability assay for chimeric CA8 antibody, chimeric CA8-vcMMAE and chimeric CA8-mcMMAF antibody-drug conjugates in human multiple myeloma cell lines NCI-H929, U266-B1, JJN3 and OPM2. Antibody was added to the cells and the number of viable cells after 96 hours measured using CelltiterGlo. Data points represent the mean of triplicate CellTiterGlo measurements. Error bars represent standard error.\nMultiple Myeloma cell lines were treated with chimeric CA8 antibody-drug conjugates to determine the ADC concentrations required for growth inhibition and death.\nThe antibody drug conjugates tested were added to wells containing multiple myeloma cells at concentrations ranging from 1 ug/ml to 5 ng/ml. The plates were incubated at 37° C. for 96 hours at which point viable cells were quantitated using Cell titre Glo."}, "BCMA-Fc": {"tested_on": "BCMA-Fc", "assay": "Biacore cross reactivity experiment, BCMA-Fc", "format": "binding", "settings": "antibody captured on protein A", "protocol": "(§2) CA8 chimera antibody was injected and captured on protein A. (A protein A derivitised sensorchip was used). Residual protein A binding was blocked with an injection of a high concentration of human IgG solution. BCMA-Fc, TACI-Fc or BAFF-R-Fc solutions were then tested for binding to the antibody. The 3 proteins were injected in sequence and binding events were measured. The surface was regenerated between injection of each protein.\n(§3) Sensorgrams were analysed in the Biaevaluation program. Double reference subtraction was done to remove instrument noise and any non-specific binding from the sensorgram curves."}, "TACI-Fc": {"tested_on": "TACI-Fc", "assay": "Biacore cross reactivity experiment, TACI-Fc", "format": "binding", "settings": "antibody captured on protein A", "protocol": "as §2, §3"}, "BAFF-R-Fc": {"tested_on": "BAFF-R-Fc", "sequence (Q96RJ3 1-78 limits assumed)": "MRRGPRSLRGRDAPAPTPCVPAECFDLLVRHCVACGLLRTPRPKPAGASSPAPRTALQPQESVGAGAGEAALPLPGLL", "assay": "Biacore cross reactivity experiment, BAFF-R-Fc", "format": "binding", "settings": "antibody captured on protein A; listed as CA8 chimera antibody", "protocol": "as §2, §3"}, "Human commercial BCMA [5]": {"target": "T2, Human commercial BCMA", "assay": "BIAcore analysis J7 to J9 series, human commercial BCMA", "format": "binding", "settings": "37° C.", "protocol": "as §1, with “nM) and” for “nM)”, “at” for “at 25° C. and”, “C.,” for “C. for experiment 1 and only 37° C. for experiment 2”"}, "Cyno in house BCMA [6]": {"tested_on": "Cyno in house BCMA", "assay": "BIAcore analysis J7 to J9 series, cyno in house BCMA", "format": "binding", "settings": "37° C."}}, "data": [{"molecule": "B1", "values": [{"measurement": "ka", "setting": "Human in house BCMA; Run 1, Human in house BCMA", "value": "2.41E+05"}, {"measurement": "kd", "setting": "Human in house BCMA; Run 1, Human in house BCMA", "value": "1.25E−04"}, {"measurement": "ka", "setting": "Human in house BCMA; Run 2, Human in house BCMA", "value": "2.51E+05"}, {"measurement": "kd", "setting": "Human in house BCMA; Run 2, Human in house BCMA", "value": "1.03E−04"}, {"measurement": "ADCC activity (specific lysis, europium release)", "setting": "[1]", "value": "killed BCMA expressing target cells via ADCC"}, {"measurement": "ka", "setting": "Human commercial BCMA [2]; 25° C., Experiment 1, in M-1s-1 (unit assumed)", "value": "1.88E+06"}, {"measurement": "kd", "setting": "Human commercial BCMA [2]; 25° C., Experiment 1, in s-1 (unit assumed)", "value": "2.63E−04"}, {"measurement": "ka", "setting": "Human commercial BCMA [2]; 37° C., Experiment 1, in M-1s-1 (unit assumed)", "value": "1.72E+07"}, {"measurement": "kd", "setting": "Human commercial BCMA [2]; 37° C., Experiment 1, in s-1 (unit assumed)", "value": "8.72E−04"}, {"measurement": "ka", "setting": "Human commercial BCMA [2]; 37° C., Experiment 2, in M-1s-1 (unit assumed)", "value": "1.88E+07"}, {"measurement": "kd", "setting": "Human commercial BCMA [2]; 37° C., Experiment 2, in s-1 (unit assumed)", "value": "1.04E−03"}, {"measurement": "ka", "setting": "Cyno in house BCMA [3]; Run 1, Cyno in house BCMA", "value": "3.82E+05"}, {"measurement": "kd", "setting": "Cyno in house BCMA [3]; Run 1, Cyno in house BCMA", "value": "1.74E−04"}, {"measurement": "ka", "setting": "Cyno in house BCMA [3]; Run 2, Cyno in house BCMA", "value": "5.89E+04"}, {"measurement": "kd", "setting": "Cyno in house BCMA [3]; Run 2, Cyno in house BCMA", "value": "1.21E−04"}, {"measurement": "growth inhibitory activity", "setting": "[4]", "value": "no significant growth inhibitory activity"}, {"measurement": "binding to BCMA-Fc", "setting": "BCMA-Fc", "value": "specific for binding to BCMA"}, {"measurement": "binding to TACI-Fc", "setting": "TACI-Fc; listed as CA8", "value": "not to TACI"}, {"measurement": "binding to TACI-Fc", "setting": "TACI-Fc; listed as CA8 chimera antibody", "value": "does not bind"}, {"measurement": "binding to BAFF-R-Fc", "setting": "BAFF-R-Fc", "value": "does not bind"}, {"measurement": "ka", "setting": "Human commercial BCMA [5]; in M-1s-1 (unit assumed)", "value": "3.27E+07"}, {"measurement": "kd", "setting": "Human commercial BCMA [5]; in s-1 (unit assumed)", "value": "1.18E−03"}, {"measurement": "ka", "setting": "Cyno in house BCMA [6]; in M-1s-1 (unit assumed)", "value": "1.15E+06"}, {"measurement": "kd", "setting": "Cyno in house BCMA [6]; in s-1 (unit assumed)", "value": "3.49E−04"}]}]}
